{"source": "paper PMC11998537", "about": "“Restriction of influenza A virus replication by host DCAF7-CRL4B axis” (Journal of Virology, 2025)", "binders": {"B1": {"name": "GST-DCAF7 (natural protein, human, UniProt P61962 1-342, looked up)", "chain": "MSLHGKRKEIYKYEAPWTVYAMNWSVRPDKRFRLALGSFVEEYNNKVQLVGLDEESSEFICRNTFDHPYPTTKLMWIPDTKGVYPDLLATSGDYLRVWRVGETETRLECLLNNNKNSDFCAPLTSFDWNEVDPYLLGTSSIDTTCTIWGLETGQVLGRVNLVSGHVKTQLIAHDKEVYDIAFSRAGGGRDMFASVGADGSVRMFDLRHLEHSTIIYEDPQHHPLLRLCWNKQDPNYLATMAMDGMEVVILDVRVPCTPVARLNNHRACVNGIAWAPHSSCHICTAADDHQALIWDIQQMPRAIEDPILAYTAEGEINNVQWASTQPDWIAICYNNCLEILRV", "notes": "source: E. coli BL21, purified"}}, "key": {"[1]": {"target": "T1, His-PB2 (influenza A/Puerto Rico/8/1934 (PR8, …, UniProt P03428 1-759))", "T1 construct": "source: E. coli BL21, purified", "experiment": "pull-down", "details": "both partners purified"}, "[2]": {"target": "T2, His-PB1 (influenza A/Puerto Rico/8/1934 (PR8, …, UniProt P03431 1-757))", "T2 construct": "source: E. coli BL21, purified", "experiment": "pull-down", "details": "both partners purified"}}}
{"binder": "B1", "values": [{"measurement": "binding result", "setting": "[1]", "value": "binds"}, {"measurement": "binding result", "setting": "[2]", "value": "binds"}]}
